Laboratory results taken from patent US20240352438A1, “MEANS AND METHODS FOR DETOXIFYING OCHRATOXIN A” (DSM Austria GmbH, priority 2021, published 2024).

B1: SEQ ID NO: 348: another exemplary OTA-hydrolyzing polypeptide, amidohydrolase family; mature, processed species of SEQ ID NO: 349 (protein)
chain: RAHIVEPVAIKAKRVFTGVTGAVIENGVVIVDDKGRIAAISRVVPKGAKVIDLGDATLLPGFIDAHVHLSGEMSDNWYKDFRDRMLRFPAEQAHYAARNAKKTLMAGFTTVRDVGSADWQASALRNAVNAGVIVGPRILASNYAIGATGGHGDGTPFPPDRVAPDGPLKGVCNGADQCRAAVRYQIKYGADVIKFMPSGGVLSLSDPVDVPELTQDEINAIISEAHAWHRKVAAHAHGDEAARMAVKAGVDSIEHGTFLTDETLKQMKKQGTYLVATLFAGEWVGMKADNYPPAVAEKARAAAAQMQRMFARAVKIGVPIAFGTDAGVEPHGLNAHEFSLMVKNGMSPKAALLAATREAAKLLGVIDRTGTLEPGKAADMVAVRGDPLADIKATEQVIFVMKGGKIYRNEVE
modifications: exemplary polypeptide
B2: SEQ ID NO: 336: another exemplary OTA-hydrolyzing polypeptide, amidohydrolase family; mature, processed species of SEQ ID NO: 337 (protein)
chain: VPAPPRPAVLKAARIFDSVSGHLEEPGLVVVAGAKIQAVGSDARIPDNAQVIDLGDATLMPGFIDAHVHLSSEMSDKWYEDWYKSMVRFPAEQALYGAHYAKATLEAGITTVRDLGSSDYISLGLRNAIKAGQIPGPRMLVANYAIGSTGGHADQDPVPPQRLAPAGPIQGVCNGPDECRAAVRYQLKYGADVIKFMPSGGVLSLSDPVDTPELTQEEMNAIVSEAHAWKRKVAAHCHGDRAAKMAIAAGVDSIEHGTFLQDDTLQEMKDKHIYLVPTLSAGYWVGLKADTYPPVIAEKARAASRQMQKMFQRAVKIGVPIAMGTDAGVEPHGQNAREFSLMTTNGLPPAQALLAATAKGADLLGISDQTGTLQPGKYADIVAVGGNPLLDIKATEHPLLVMKEGVIYVGGK
modifications: exemplary polypeptide
B3: 19 (protein)
chain: MLSLLAANACVADAAPAASRTIVLRAARMFDGASGKLVEHPQLTIVGNKIVRIAQSDNAEVPASAEVIDLGDATLLPGFIDAHVHLSGQSSDNWYGDFFDNMMRFPAEQALYGAYYACITLEAGFTSVRDLGSTDWVALGLRNAIDAGKVPGPRMLVSNYAVGSTGGHADQDPIPPHRLPLAGPLQGVCNGPEECRAAVRYQIKYGANVIKFMPSGGVLSLSDPVDAPELSQDEMNAVIGESHAWGRKVAAHAHGDKAAKMAVAAGVDSIEHGSFIEDDTLRAMKAKNVYLVPTISAIAHVEEKIATFPPVIAEKGRAAAAHSRQTFRHAVQIGVPIALGTDAGVGAHGTNAREFRYMVENGLTPVQSLLAGTANAARLLGIIDRVGTLEAGKLADIVAVPGNPVADITVTERPVFVMKDGVVVRRGAVR
modifications: polypeptide 5
B4: 21 (protein)
chain: MTTPTRILTAVLALLASNACAADATPSTPHTVVLRAARMFDGASGKLVERPQLTIVGNKIVRIAQADKADVPAGAEVIDLGDATLLPGFIDAHVHLSGQGSDNWYGDFFDNMMRFPAEQALYGAYYARITLEAGFTSVRDVGSTDWVALGLRNAIDAGKVPGPRMLVSNYAVGSTGGHADQDPIPPHKLPLAGPLQGVCNGPEECRAAVRYQIKYGANVIKFMPSGGVLSLSDPVDAPELSQDEMNAVIGESHAWGRKVAAHAHGDKAAKMAVAAGVDSIEHGSFIEDDTLRAMKAKGVYLVPTISAIAHVEEKIATFPPVIAEKGRAAAAHLRQTFRHAVQIGVPIALGTDAGVGAHGTNAREFRYMVENGLSPAQSLLAGTSNAARLLGTIDRVGTLEAGKLADVVAVPGNPIADITVTERPVFVMKDGVVVRRGAVR
modifications: polypeptide 7
B5: 368 (protein)
chain: MTTPTRILTAVLSLLAANACAADAAPATPHTVVLRAARMFDGASGKLVERPQLTIVGNKIVRIAQADKADVPAGAEVIDLGDATLLPGFIDAHVHLSGQGSDNWYGDFFDNMMRFPAEQALYGAYYARITLEAGFTSVRDVGSTDWVALGLRNAIDAGKVPGPRMLVSNYAVGSTGGHADQDPIPPHKLPLAGPLQGVCNGPEECRAAVRYQIKYGANVIKFMPSGGVLSLSDPVDAPELSQDEMNAVIGESHAWGRKVAAHAPGDKAAKMAVAAGVDSIEHGSFIEDDTLRAMKAKGVYLVPTISAIAHVEEKIATFPPVIAEKGRAAAAHLRQTFRHAVQIGVPIALGTDAGVGAHGTNAREFRYMVENGLSPAQSLLAGTSNAARLLGTIDRVGTLEAGKLADVVAVPGNPIADITVTERPVFVMKDGVVVRRGAVR
modifications: exemplary polypeptide
B6: 369 (protein)
chain: MRTRTRILTASLALLAANAWAADAMPSTPHTVVLRAARMFDGASGKLVEHPQLTIVGNKIVRVAQDDKAAVPAGADVIDLGDATLLPGFIDAHVHLSGQSSDNWYGDFFDNMMRFPAEQALYGAWYARITLEAGFTSVRDVGSTDWIALGLRNAIDAGKVPGPRMLVSNYAIGSTGGHADQDPIPPQKLAPAGPLQGVCNGPDECRAAVRYQIKYGANVIKFMPSGGVLSLSDPVDAPELTQEEMNAVVGEAHAWGRKVAAHAHGDKAAKMAVAAGVDSIEHGSFLEDDTLRMMKAKGVYLVPTISAVMHVEEKIATFPPVIAEKGRAAAAHVRQTFRHAVQIGVPIALGTDAGVGAHGTNAREFRYMVDNGMAPAQALLAGTSNAARLLGTIDRVGTLEAGKLADVVAVPGNPVADITVTERPVFVMKDGVVVRRGAVR
modifications: exemplary polypeptide
B7: 22 (protein)
chain: MQYDVAIKNGNVFTGTEFIGKMNIYISNGKISKVSKEDLNAKQEIDAKDMLVMPGLIDAHMHISGLKGGSLLKIMFEKPEYRALRATKWLEKLLLAGFTTVRDCGEPISISLKRAVNEGYIKGPKIIAAGKPITQTFGHGEFSHDIPLEFSISLGFSEICDGTESCIHAARKVLRDGSDFIKIFATGGVLSQRDRPDMPQLSFDEIRAIVNEAEKAGTYVAAHAHGDKGARIAIEAGIKTLEHGSLLKEDTLKLMLEKNISLTPTLTITEIIYKYGKTIGVDEWGLEKIVEVRENLHKVLRKAKELGITIITGTDMGFETGLEDYDIGKNWTEILLLTEVGGLSNEEALRAATYNSAKALGLNSGLIDEGKDADIIVIDGNPLENIKDVSKVVHVIKQGKLEVLDGKIINNY
modifications: polypeptide 8
B8: 20 (protein)
chain: MTTRFRILTAVLSLLAASACAADAAPATPHTVVLRAARMFDGASGKLVERPQLTIVGNKIVRIAQADKAEVPAGAEVIDLGDSTLLPGFIDAHVHLSGQGSDNWYGDFFDNMMRFPAEQALYGAYYARITLEAGFTSVRDLGSTDWVALGLRNAIDAGKVPGPRMLVSNYAVGSTGGHADQDPIPPHKLPLAGPLQGVCNGPEECRAAVRYQIKYGANVIKFMPSGGVLSLSDPVDAPELSQDEMNAVIGESHAWGRKVAAHAHGDKAAKMAVAAGVDSIEHGSFIEDDTLRAMKAKNVYLVPTISAIAHVEEKIGTFPPVIAEKGRAAAAHLRQTFRHAVQIGVPIALGTDAGVGAHGTNAREFRYMVENGLTPAQSLLAGTSNAARLLGTIDKVGTLEAGKLADVVAVPGNPIADITVTERPVFVMKDGVVVRRGAVR
modifications: polypeptide 6
B9: 1 (protein)
chain: APAAPHTVVLRAARMFDGASGKLVDHPQLTIVGNKIVRIAQGDKAEVPAGAEVVDLGDATLLPGFIDAHVHLSGQSSDNWYGDFFDNMMRFPAEQALYGAYYARITLEAGFTSVRDVGSTDWVALGLRNAIDAGKVPGPRMLVSNYAVGSTGGHADQDPIPPHKLPLAGPLQGVCNGPEECRAAVRYQIKYGANVIKFMPSGGVLSLSDPVDAPELSQDEMNAVIGESHAWGRKVAAHAHGDKAAKMAVAAGVDSIEHGSFIEDDTLRAMKAKNVYLVPTISAIAHVEEKIGTFPPVIAEKGRAAAAHLRQTFRHAVQIGVPIALGTDAGVGAHGSNAREFRYMVENGLTPAQALLAGTANAARLLGTFDRVGTLEAGKLADVVAVPGNPIADITVTERPLFVMKDGVVVRRDAVR
modifications: polypeptide 1

Assays:
[1] = OTA detoxification activity assay (specific activity, fluorescence reduction ex/em 390/450 nm); type: biochemical; details: 37° C., 200 ng/mL OTA, 100 mM sodium phosphate buffer
Outline: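 Recombinant enzyme preparation with 200 ng/mL OTA in 100 mM sodium phosphate, at pH 6.0 and pH 7.5, 37° C. Degradation followed as the fall in fluorescence at ex/em 390/450 nm. Specific activity taken from the initial linear slope; one unit degrades 1 μmol OTA per min at a starting OTA of […].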

[2] = Thermostability assay: residual OTA detoxification activity after 10 min incubation at 45-99° C. (T50); type: physicochemical; details: for T50 (temperature range in which 50% of the initial activity was lost after the incubation): 0.1 mg/mL in 20 mM Tris-HCl buffer pH 7.5; for T50 (temperature at which 50% of the initial activity was maintained): 0.1 mg/mL protein in 20 mM Tris-HCl pH 7.5, residual OTA detoxification activity relative to 4° C. reference aliquot
Method: Stability was determined in terms of thermostability. Notwithstanding, a person having skill in the art is aware that stability towards high temperature (e.g. more than 30° C.) often correlates with stability towards other non-standard conditions such as stability towards acidic or basic pH (e.g. below pH 6.5 or above pH 7.5, respectively), towards elevated salt concentrations, organic solvents or drying.
To determine the kinetic stability of the produced enzymes, thermostability assays were performed. To this end, purified protein samples were diluted to a protein concentration of 0.1 mg/mL in 20 mM Tris-HCl buffer pH 7.5 and aliquots were incubated in a thermocycler for 10 min at either 45, 55, 65, 75, 80, 85, 90, 95 or 99° C. After this incubation, the aliquots were stored at 4° C. until further analysis. A reference aliquot was stored at 4° C. throughout the incubation. Subsequently, all aliquots were assayed for residual OTA detoxification activity using the assay described in Example 3. Residual enzyme activities were calculated relative to the reference aliquot. The temperature range in which 50% of the initial activity was lost after the incubation (T50), in relation to the reference aliquot was determined.

Row | Molecule | Specific OTA detoxification activities in U/g at pH 6.0 [1] [U/g] | Specific OTA detoxification activities in U/g at pH 7.5 [1] | T50 (temperature range in which 50% of the initial activity was lost after the incubation) [2] | T50 (temperature at which 50% of the initial activity was maintained) [2]
1 | B1 | ~19 | approximately 32 U/g | 85-90 °C | –
2 | B2 | ~22 | approximately 40 U/g | 90-95 °C | –
3 | B3 | 8.72 | 10.91 U/g | – | 65 °C
4 | B4 | 20.53 | 30.87 U/g | – | 65-75 °C
5 | B5 | 3.70 | 15.10 U/g | – | 68 °C
6 | B6 | 122.50 | 159.80 U/g | – | 68 °C
7 | B7 | 0.66 | 0.79 U/g | – | >95 °C
8 | B8 | 49.73 | 100.52 U/g | – | <45 °C
9 | B9 | 99.00 | 191.89 U/g | – | 65-75 °C
